For series [1], the target named is T1, GPC1-hFc (UniProt P35052 24-530, limits assumed).
T1 construct: not shown: human Fc tag (hFc)
T1 sequence (looked up): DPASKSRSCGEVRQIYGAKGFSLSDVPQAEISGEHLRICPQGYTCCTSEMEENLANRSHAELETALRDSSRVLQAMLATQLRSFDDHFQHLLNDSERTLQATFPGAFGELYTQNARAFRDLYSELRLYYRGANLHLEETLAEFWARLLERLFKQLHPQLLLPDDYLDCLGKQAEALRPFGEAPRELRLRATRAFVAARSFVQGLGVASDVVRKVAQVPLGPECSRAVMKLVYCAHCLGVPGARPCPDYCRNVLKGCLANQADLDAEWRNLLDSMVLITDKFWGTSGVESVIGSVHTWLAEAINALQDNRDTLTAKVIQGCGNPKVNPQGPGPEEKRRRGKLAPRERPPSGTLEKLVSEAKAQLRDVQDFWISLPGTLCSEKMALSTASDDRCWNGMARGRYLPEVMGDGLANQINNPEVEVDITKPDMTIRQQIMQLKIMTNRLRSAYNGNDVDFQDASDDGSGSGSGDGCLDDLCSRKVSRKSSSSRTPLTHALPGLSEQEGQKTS
Put plainly: flow cytometry, hFc-tagged protein on CAR-expressing Jurkat cells. As for the experimental part:
To test antigen specificity and cell binding capacity of the engineered GPC3-targeted CARs, T cell lines (Jurkat) transfected with the CAR constructs were developed and binding to GPC3 tagged with human Fc (GPC3-hFc) was assessed. First, successful transduction (95-98%) of all of the CAR constructs was confirmed using the truncated EGFR marker expressed by the CAR lentivirus. […] All CAR T cells specifically bound to GPC3-hFc (FIG. 1A) and not GPC1-hFc (FIG. 1B) at the same concentrations.
For orientation: In flow cytometry, cells or beads pass a laser one at a time.

Series [2] addresses glypican-3 (GPC3) on HCC cell lines Hep3B, Huh7 and HepG2 (human, UniProt P51654 25-580). Put plainly: cell-based or functional assay.

glypican-3 (GPC3) on HCC cell lines Hep3B, Huh7 and HepG2, sequence (P51654 25-580): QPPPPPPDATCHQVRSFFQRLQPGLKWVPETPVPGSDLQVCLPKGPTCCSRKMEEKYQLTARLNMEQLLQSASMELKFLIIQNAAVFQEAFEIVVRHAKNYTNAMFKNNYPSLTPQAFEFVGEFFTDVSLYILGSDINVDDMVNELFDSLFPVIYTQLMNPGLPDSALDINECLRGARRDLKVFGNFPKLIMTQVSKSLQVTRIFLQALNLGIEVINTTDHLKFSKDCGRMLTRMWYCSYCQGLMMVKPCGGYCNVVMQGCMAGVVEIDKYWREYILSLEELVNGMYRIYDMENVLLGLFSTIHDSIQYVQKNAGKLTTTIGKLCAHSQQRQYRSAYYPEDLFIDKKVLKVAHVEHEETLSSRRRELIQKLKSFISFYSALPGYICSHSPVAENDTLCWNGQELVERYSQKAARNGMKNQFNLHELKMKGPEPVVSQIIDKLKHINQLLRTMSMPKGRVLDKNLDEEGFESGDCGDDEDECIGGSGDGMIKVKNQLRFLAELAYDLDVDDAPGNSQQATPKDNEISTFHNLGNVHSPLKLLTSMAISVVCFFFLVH

B1: hYP7-CD8H-CD8TM CAR (other)
chain: HMEVQLVESGGGLVQPGGSLRLSCAASGFTFNKNAMNWVRQAPGKGLEWVGRIRNKTNNYATYYADSVKARFTISRDDSKNSLYLQMNSLKTEDTAVYYCVAGNSFAYWGQGTLVTVSAGGGGSGGGGSGGGGSDIVMTQSPDSLAVSLGERATINCKSSQSLLYSSNQKNYLAWYQQKPGQPPKLLIYWASSRESGVPDRFSGSGSGTDFTLTISSLQAEDVAVYYCQQYYNYPLTFGQGTKLEIKTSTTTPAPRPPTPAPTIASQPLSLRPEACRPAAGGAVHTRGLDFACDIYIWAPLAGTCGVLLLSLVITKRGRKKLLYIFKQPFMRPVQTTQEEDGCSCRFPEEEEGGCELRVKFSRSADAPAYQQGQNQLYNELNLGRREEYDVLDKRRGRDPEMGGKPRRKNPQEGLYNELQKDKMAEAYSEIGMKGERRRGKGHDGLYQGLSTATKDTYDALHMQALPPR
As to B1, the binding result in series [1] was “no binding (tested: 1, 2 and 5 µg/mL)”.

B2: HN3-IgG4H-CD28TM CAR (other)
chain: HMQVQLVQSGGGLVQPGGSLRLSCAASYFDFDSYEMSWVRQAPGKGLEWIGSIYHSGSTYYNPSLKSRVTISRDNSKNTLYLQMNTLRAEDTATYYCARVNMDRFDYWGQGTLVTVSSTSESKYGPPCPPCPFWVLVVVGGVLACYSLLVTVAFIIFWVKRGRKKLLYIFKQPFMRPVQTTQEEDGCSCRFPEEEEGGCELRVKFSRSADAPAYQQGQNQLYNELNLGRREEYDVLDKRRGRDPEMGGKPRRKNPQEGLYNELQKDKMAEAYSEIGMKGERRRGKGHDGLYQGLSTATKDTYDALHMQALPPR
notes: also called HN3-IgG4-CD28TM; HN3-IgGH-CD28TM
Take B2: the binding result in series [1] is “no binding (tested: 1, 2 and 5 µg/mL)”. Moreover, the “potency (killing) relative to HN3-CD8H-CD28TM” value in series [2] lay within 10 to 20%.

B3: HN3-CD8H-CD28TM CAR (other)
chain: HMQVQLVQSGGGLVQPGGSLRLSCAASYFDFDSYEMSWVRQAPGKGLEWIGSIYHSGSTYYNPSLKSRVTISRDNSKNTLYLQMNTLRAEDTATYYCARVNMDRFDYWGQGTLVTVSSTSTTTPAPRPPTPAPTIASQPLSLRPEACRPAAGGAVHTRGLDFACDFWVLVVVGGVLACYSLLVTVAFIIFWVKRGRKKLLYIFKQPFMRPVQTTQEEDGCSCRFPEEEEGGCELRVKFSRSADAPAYQQGQNQLYNELNLGRREEYDVLDKRRGRDPEMGGKPRRKNPQEGLYNELQKDKMAEAYSEIGMKGERRRGKGHDGLYQGLSTATKDTYDALHMQALPPR
Take B3: the binding result in series [1] was “no binding (tested: 1, 2 and 5 µg/mL)”. Besides, in series [2], the “killing relative to HN3-CD8H-CD8TM CAR T cells” value stood at 40%.

B4: HN3-IgG4H-CD8TM CAR (other)
chain: HMQVQLVQSGGGLVQPGGSLRLSCAASYFDFDSYEMSWVRQAPGKGLEWIGSIYHSGSTYYNPSLKSRVTISRDNSKNTLYLQMNTLRAEDTATYYCARVNMDRFDYWGQGTLVTVSSTSESKYGPPCPPCPIYIWAPLAGTCGVLLLSLVITKRGRKKLLYIFKQPFMRPVQTTQEEDGCSCRFPEEEEGGCELRVKFSRSADAPAYQQGQNQLYNELNLGRREEYDVLDKRRGRDPEMGGKPRRKNPQEGLYNELQKDKMAEAYSEIGMKGERRRGKGHDGLYQGLSTATKDTYDALHMQALPPR
As for B4, the binding result in series [1] was “no binding (tested: 1, 2 and 5 µg/mL)”.

Source of the values: patent US20250017962A1 (US Dept. of Health and Human Services, published 2025).
